Measurements: PMC12279188

Biological target: KSHV gB653-mut ectodomain (Kaposi's sarcoma-associated herpesvirus (KSHV), strain GK18) (UniProt F5HB81)
Assay: cryo-EM structure

KSHV gB653-mut ectodomain (from UniProt F5HB81 27-653) (domain or fragment)
stoichiometry N: 3
